# Results as given in the nanobody polyreactivity screen of Harvey et al. (2022).
# Test: yeast display, Sf9 membrane polyspecificity reagent, FACS + sequencing; frameworks hold sequencing errors
# Summary of the method: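 Polyreactivity labels are assigned by the sorting gate from which each nanobody was recovered. The gates were low and high (top ~1%), set on anti-HA fluorescence for expression and streptavidin fluorescence for reagent binding. Before sorting, galactose-induced (36–48 hours) yeast display cells were stained for 1 hour at 4 °C with 10% biotinylated, detergent-solubilized Sf9 membrane reagent.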
row,Sequence,polyreactivity (PSR sort gate)
1,QVQLVESGGGLVQAGGSLRLSCAASGRTFGKNAMGWYRQAPGKEREFVAAITSRGGSTYYADSVKGRFTISRDNAKNTVYLQMNSLIPEDTAFYYCNREYKRPSQRTEHYYWGQGTQVTVSS,low polyreactivity
2,QVQLVESGGGLVQAGGSLRLSCAASGRTFGKYAMGWYRQAPGKERELVAAISSGGTTYYADSVKGRFTISRDNAKNTVYLQMNSLKPEDTAVYYCAADPRYPYNYWGQGTQVTVSS,low polyreactivity
3,QVQLVESGGGLVQAGGSLRLSCAASGRTFGKYAMGWYRQAPGKERELVAVITWRGVSTYADSVKGRFTISRDNAKNTVYLQMNSLKPEDTSFYYCAKTRVRGTEFGYWGLGTQVTVSS,low polyreactivity
4,QVQLVESGGGLVQAGGSLRLSCAASGRTFGLNAMGWYRQATGKERELVAAITSGGSTYYADSVKGRFTISRDNAKKTVYLQMNSLKPEDTAVYYCAVTYNGDSSWPGDYWGQGTQVTVSS,low polyreactivity
5,QVQLVESGGGLVQAGGSLRLSCAASGRTFGLYAMGWYRQAPGKERELVADINGSGTRTYYADSVKGRFTISRDNAKNTVYLQMNSLKPEDTAVYYCYGRYHWLYYWGQGTQVTVSS,high polyreactivity
6,QVQLVESGGGLVQAGGSLRLSCAASGRTFGLYAMGWYRQAPGKVRELVAAISWGGGRTYYADSVKGRFSISRDNAKNSVYLQMNSLKPEDTAVYYCNAVYSPRDYVGGYDYWGQGTQVTVSS,high polyreactivity
7,QVQLVESGGGLVQAGGSLRLSCAASGRTFGLYAMGWYRQSPGKERELVATISRGGSTYYADSVKGRFTISRDNAKNTVYLQMNSLKPEDTAVYYCNAAKYTWYYGYNYWGQGTKVTVSS,high polyreactivity
8,QVQLVESGGGLVQAGGSLRLSCAASGRTFGLYTMGWYRQAPGKERELVAAISRSGGSTYYADSVKGRFTISRDNAKNTVYLQMNSLKPEDTAVYYCATRRSFSDRYDYWGQGTQVTVSS,high polyreactivity
9,QVQLVESGGGLVQAGGSLRLSCAASGRTFGNNAMGRYRLAPGKVWELVAAINWSGASTYYADSVKGRFTISRDNAKNTVYLQMNSLKPEDTAVYYCAADYSYIYGFDYWGQGTQVTVSS,low polyreactivity
10,QVQLVESGGGLVQAGGSLRLSCAASGRTFGNNAMGWYRQAPGKERELVAAISRSGGSTYYADSVKGRFTISRDNAKNTVYLQMNSLKPEDTAVYYCAARLYGGYDWGQGTQVTVSS,high polyreactivity
11,QVQLVESGGGLVQAGGSLRLSCAASGRTFGPNGMGWYRQAPGKERELLAVITSSGGRTYYADSVKGRFTISRDNAKNTVYLQMNSLKPEDTAVYYCAADAKKFGGTKNAELDYWGQGTQVTVSS,low polyreactivity
12,QVQLVESGGGLVQAGGSLRLSCAASGRTFGPYAMGWYRQAPGKERELVAAITSSGGSTYYADSVKGRFTISRDNAKNTVYLQMNSLKPEDTAVYYCNNLYWRQSQDYDYWGQGTQVTVSS,low polyreactivity
13,QVQLVESGGGLVQAGGSLRLSCAASGRTFGQNAMGWYRQAPGKERELVAVISSRGGSTYYADSVKGRFTISRDNAKNTVYLQMNSLKPEDTAVYYCNTDAQSRQTIRTGYDSWGQGTQVTVSS,high polyreactivity
14,QVQLVESGGGLVQAGGSLRLSCAASGRTFGRNAMGWYRQAPGKERELVAAINSGGSTKYADSVKGRFTISRDNAKNTVYLQMNSLKPEDTSVYYCARRGGFSYYYWGQGTQVTVSS,high polyreactivity
15,QVQLVESGGGLVQAGGSLRLSCAASGRTFGRNAMGWYRQAPGKERELVAAITWSGVTTYYADSVKGRFTISRDNAKNTVYLQMNSLKPEDTAVYYCATGTLYSDGAIYGYWGQGTQVTVSS,low polyreactivity
16,QVQLVESGGGLVQAGGSLRLSCAASGRTFGRNAMGWYRQSPGKERELVAAISRSGASTYYADSVMGRFTLSRDNAKNTVYLQMNSLKPEDTAVYDCAARYSYYHGSAGFDYWGQGTQVTVSS,high polyreactivity

row,Sequence,polyreactivity (PSR sort gate)
1,QVQLVESGGGLVQAGGSLRLSCAASGRTFGRNDMAWYRQAQGKERELVAGISIGGGTTYYADSVKGRFTISRDNAKNTVYLQMNSLKPEDTAVYYCAARSWSYLHRYGYWGQGTQVTVSS,high polyreactivity
2,QVQLVESGGGLVQAGGSLRLSCAASGRTFGRYAMGWYRQAPGKERELLARISYSGGSTYYADSVKGRFTISRDNAKNTDYLQMNSLKPEDTAVYYCAASFFGRFDPDRSYWGQGTQVTVSS,high polyreactivity
3,QVQLVESGGGLVQAGGSLRLSCAASGRTFGRYAMGWYRQAPGKERELVAAINKNGGSTFYADSVKGRFTISRDNAKNTVYLQMNSLKPEDTAVYYCNRTAYVRGYPPWGYDYWGQGTQVTVSS,low polyreactivity
4,QVQLVESGGGLVQAGGSLRLSCAASGRTFGRYAMGWYRQAPGKERELVASITSRGGSTYADSVKGRFTISRDNAKNTVYLQMNSLKPEDTAVYYCASRDKYRYWYAYWRQGTQVTVSS,high polyreactivity
5,QVQLVESGGGLVQAGGSLRLSCAASGRTFGRYAMGWYRQAPGKERELVATITSGGSTNYADSVKGRFTISRDNAKNTVYIQMKSMKPEDTAVYYCAAEFSPSRWAYSEGALRYYYWGQGTQVTVSS,low polyreactivity
6,QVQLVESGGGLVQAGGSLRLSCAASGRTFGRYAMGWYRQAPGKERELVAVINGGGSTYYADSVKGRFTISRDNAKNTVYLQMKSLKPEDTAVYYCNAGYYWGQGTQVTVSS,high polyreactivity
7,QVQLVESGGGLVQAGGSLRLSCAASGRTFGRYDMGWYRQAPGKERELVAAITGGVITTYADSVKGRFTISRDNAKNTVYLQMKSLKREDTAVYDCAARYNVFPSPHYYYWGQGTQVTVSS,low polyreactivity
8,QVQLVESGGGLVQAGGSLRLSCAASGRTFGRYVMGWYRQAPGKERELVAAIRSRGGSTYYADSVKGRFTISRDNAKNTVYLQMNSLKPEDTAVYYCNAVDRKPYRTYDYWGQGTQVTVSS,high polyreactivity
9,QVQLVESGGGLVQAGGSLRLSCAASGRTFGSNAMGWYRQAPGKERELVAAITKSGGGTYYADSVKGRFTISRDNAKNTVYLQMNSLKPEDTAVYYCAARRYARSGGALYPYDYWGQGSQVTVSS,high polyreactivity
10,QVQLVESGGGLVQAGGSLRLSCAASGRTFGSNLMGWYRQAPGKERELVADISVSGGSTNYADSVKGRFTISRDNAKNTVYVQLNSLNPEDTAVYYCAASQLSDWPPYYYDFDYWGQGTQVTVSS,low polyreactivity
11,QVQLVESGGGLVQAGGSLRLSCAASGRTFGSYAMGWYRQAPGKERELVAAITWSGTGTYYADSVKGRFTISRDNAKNTVYLQMNSLKPEDTAVYYCNTDRWYAYDWGQGTQVTVSS,high polyreactivity
12,QVQLVESGGGLVQAGGSLRLSCAASGRTFGTYAMGWYRQAPGKERELVAVITNGGGTYYADSVKGRFTISRDNAKNTVYLQMNSLKPEDTAVYYCNTDRYGLRRWVYSYWGGYDYWGQGTQVTVSS,low polyreactivity
13,QVQLVESGGGLVQAGGSLRLSCAASGRTFGVNAMGWYRQAPGKERELVAAISRSGGSTYYADSVKGRFTISRDNAKTTVYLQMNSLKPEDTEVYYCAKSYFGHHLTGFGYWGQGTQVTVSS,low polyreactivity
14,QVQLVESGGGLVQAGGSLRLSCAASGRTFGVYAMGWSRQAPGKERELVAGIRWRGGSTYYADSVKGRFTISRDNEKKTVYFQMNSLKPEETAVYYCAADVYLVKYDYWGQGTQVTVSS,low polyreactivity
15,QVQLVESGGGLVQAGGSLRLSCAASGRTFGVYAMGWYRQAPGKERELVAAISATGGSTYYADSVKGRFTISRDNAKNTVYLQMNSLKPEDTAVYYCARGGTTLYWGQGTQVTVSS,high polyreactivity
16,QVQLVESGGGLVQAGGSLRLSCAASGRTFGVYAMGWYRQAPGKERELVAASRWSGGGTYYADSVKGRFTISRDNAKNTVYLQMNSLKPEDTAVYYGAATFQNSPYSRYTDMYYWGQGTQVTVSS,low polyreactivity
